Each block holds one binder with its values, some of them ahead of it.
B1: myeloid differentiation protein 2 (MD2) (natural protein, human)
chain: QKQYWVCNSSDASISYTYCDKMQYPISINVNPCIELKRSKGLLHIFYIPRRDLKQLYFNLYITVNTMNLPKRKEVICRGSDDDYSFCRALKGETVNTTISFSFKGIKFSKGKYKCVVEAISGSPEEMLFCLEFVILHQPN
notes: human MD2 (myeloid differentiation protein 2); Secreted from insect cells with the vector pAcGP67; also called human MD2; source: monomeric MD2 from Superdex 75)

Experiments:
Test in all cases: SPR; Biacore 3000; decoy receptor or variant covalently immobilised on a CM5 chip (EDC/NHS, 500-800 RU); MD2 4 nM to 2 µM in HBS-EP injected at 60 µL/min for 90 sec, 30 min dissociation; 1:1 Langmuir model
Conditions in all cases: both partners purified
[1] = molecular target: TLR4 decoy receptor TV3 S184K (human | hagfish, UniProt O00206 27-228; O00206 27-228, S184K)
[2] = molecular target: TLR4 decoy receptor TV3 F63W (human | hagfish, UniProt O00206 27-228; O00206 27-228, F63W)
[3] = molecular target: TLR4 decoy receptor TV3 D181E (human | hagfish, UniProt O00206 27-228; O00206 27-228, D181E)
[4] = molecular target: TLR4 decoy receptor TV3 F63L (human | hagfish, UniProt O00206 27-228; O00206 27-228, F63L)
[5] = molecular target: TLR4 decoy receptor TV3 M41E (human | hagfish, UniProt O00206 27-228; O00206 27-228, M41E)
Sequence of TLR4 decoy receptor TV3 M41E (O00206 other isoform, or with tags, fused parts or gaps M41E | M41E | M41E): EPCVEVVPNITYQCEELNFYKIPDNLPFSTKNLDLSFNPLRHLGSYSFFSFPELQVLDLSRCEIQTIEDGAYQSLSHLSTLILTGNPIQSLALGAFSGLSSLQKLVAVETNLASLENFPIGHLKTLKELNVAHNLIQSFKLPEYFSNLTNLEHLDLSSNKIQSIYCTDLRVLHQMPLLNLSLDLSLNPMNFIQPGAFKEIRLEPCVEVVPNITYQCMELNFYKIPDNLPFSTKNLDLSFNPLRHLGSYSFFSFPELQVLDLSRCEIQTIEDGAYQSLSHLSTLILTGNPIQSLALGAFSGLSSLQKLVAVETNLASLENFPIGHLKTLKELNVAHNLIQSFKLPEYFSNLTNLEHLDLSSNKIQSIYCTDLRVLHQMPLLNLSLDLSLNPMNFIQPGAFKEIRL

[6] = molecular target: TLR4 decoy receptor TV3 V134L (human | hagfish, UniProt O00206 27-228; O00206 27-228, V134L)
[7] = molecular target: TLR4 decoy receptor TV3 V132F (human | hagfish, UniProt O00206 27-228; O00206 27-228, V132F)
[8] = molecular target: TLR4 decoy receptor TV3 H159Q (human | hagfish, UniProt O00206 27-228; O00206 27-228, H159Q)
[9] = molecular target: TLR4 decoy receptor TV3 N156I (human | hagfish, UniProt O00206 27-228; O00206 27-228, N156I)
[10] = molecular target: TLR4 decoy receptor TV3 F63W/D181E (human | hagfish, UniProt O00206 27-228; O00206 27-228, F63W | D181E)
[11] = molecular target: TLR4 decoy receptor TV3 M41E/H159Q (human | hagfish, UniProt O00206 27-228; O00206 27-228, M41E | H159Q)
Sequence of TLR4 decoy receptor TV3 M41E/H159Q (O00206 other isoform, or with tags, fused parts or gaps M41E | H159Q | M41E | H159Q | M41E H159Q): as the sequence (O00206 other isoform, or with tags, fused parts or gaps M41E | M41E | M41E) above, with H133Q counted along it

[12] = molecular target: TLR4 decoy receptor TV3 F63W/V134L (human | hagfish, UniProt O00206 27-228; O00206 27-228, F63W | V134L)
[13] = molecular target: TLR4 decoy receptor TV3 V134L/H159Q (human | hagfish, UniProt O00206 27-228; O00206 27-228, V134L | H159Q)
[14] = molecular target: TLR4 decoy receptor TV3 M41E/F63W (human | hagfish, UniProt O00206 27-228; O00206 27-228, M41E | F63W)
Sequence of TLR4 decoy receptor TV3 M41E/F63W (O00206 other isoform, or with tags, fused parts or gaps M41E | F63W | M41E | F63W | M41E F63W): as the sequence (O00206 other isoform, or with tags, fused parts or gaps M41E | M41E | M41E) above, with F37W counted along it

[15] = molecular target: B1

Binder: B1
Kd [1]: 183 nM | koff [1]: 0.00141 s⁻¹ | kon [1]: 7660 M⁻¹ s⁻¹ | Kd [2]: 2.84 nM | koff [2]: 3.97e-05 s⁻¹ | kon [2]: 13900 M⁻¹ s⁻¹ | Kd [3]: 48.2 nM | koff [3]: 0.000924 s⁻¹ | kon [3]: 19100 M⁻¹ s⁻¹ | Kd [4]: 43.3 nM | koff [4]: 0.00115 s⁻¹ | kon [4]: 26500 M⁻¹ s⁻¹ | Kd [5]: 3.21 nM | koff [5]: 5.29e-05 s⁻¹ | kon [5]: 16400 M⁻¹ s⁻¹ | Kd [6]: 4.11 nM | koff [6]: 0.00011 s⁻¹ | kon [6]: 26700 M⁻¹ s⁻¹ | Kd [7]: 22.2 nM | koff [7]: 0.00154 s⁻¹ | kon [7]: 69100 M⁻¹ s⁻¹ | Kd [8]: 4.3 nM | koff [8]: 1e-05 s⁻¹ | kon [8]: 2140 M⁻¹ s⁻¹ | Kd [9]: 4.07 nM | koff [9]: 8.05e-05 s⁻¹ | kon [9]: 19700 M⁻¹ s⁻¹ | Kd [10]: 39 nM | koff [10]: 2.27e-05 s⁻¹ | kon [10]: 583 M⁻¹ s⁻¹ | Kd [11]: 145 nM | koff [11]: 0.000461 s⁻¹ | kon [11]: 3160 M⁻¹ s⁻¹ | Kd [12]: 283 nM | koff [12]: 0.00103 s⁻¹ | kon [12]: 3660 M⁻¹ s⁻¹ | Kd [13]: 0.138 nM | koff [13]: 6.12e-06 s⁻¹ | kon [13]: 44100 M⁻¹ s⁻¹ | Kd [14]: 0.026 nM | koff [14]: 5.23e-07 s⁻¹ | kon [14]: 20100 M⁻¹ s⁻¹

Kd [15]: 78 nM | koff [15]: 0.00222 s⁻¹ | kon [15]: 28400 M⁻¹ s⁻¹
B2: TLR4 decoy receptor, TV3 (wild-type) (designed binder)
chain: EPCVEVVPNITYQCMELNFYKIPDNLPFSTKNLDLSFNPLRHLGSYSFFSFPELQVLDLSRCEIQTIEDGAYQSLSHLSTLILTGNPIQSLALGAFSGLSSLQKLVAVETNLASLENFPIGHLKTLKELNVAHNLIQSFKLPEYFSNLTNLEHLDLSSNKIQSIYCTDLRVLHQMPLLNLSLDLSLNPMNFIQPGAFKEIRLKELALDTNQLKSVPDGIFDRLTSLQKIWLHTNPWDCSCPRIDYLSRWLNKNSQKEQGSAKCSGSGKPVRSIICP
modifications: limits from the PDB 2Z65 entity (paper residue number = entity position + 26); secreted from insect cells, immobilized by amine coupling

Source: PMC3281905, “Structure-Based Rational Design of a Toll-like Receptor 4 (TLR4) Decoy Receptor with High Binding Affinity for a Target Protein” (PLoS ONE, 2012)
